Experimental data from PMC3903573, “Effects of an Anticarcinogenic Bowman-Birk Protease Inhibitor on Purified 20S Proteasome and MCF-7 Breast Cancer Cells” (PLoS ONE, 2014).

Experiments:
[1] = molecular target: the molecule itself; experiment: dynamic light scattering; BTCI alone, 15 µM, pH 7.5; hydrodynamic diameter 4.5 nm
[2] = molecular target: 20S proteasome purified from horse erythrocytes (horse); experiment: enzyme inhibition assay (fluorogenic substrates, Morrison equation); 20S proteasome 2.0 µg/mL with BTCI 2.0 to 30.0 µg/mL and 62.5 µg/mL fluorogenic substrate; 20.0 mM Tris-HCl pH 7.5, 1.0 mM EDTA, 1.0 mM NaN3, 1.0 mM DTT; room temperature, 60 min; Ki fitted with GRAFIT; settings: both partners purified

B1: Black-eyed pea Trypsin/Chymotrypsin Inhibitor (natural protein, Vigna unguiculata (Cowpea), UniProt P17734 1-83, looked up)
chain: SGHHXXSTXXASXSSKPCCRXCACTKSIPPXCRCSXVRLNSCHSACKSCACTFSIPAXCFCGXIXXFCYKPCKSSHSXXXXWN
modifications: X not resolved here
notes: 83 amino acid residues, seven disulfide bonds, 9.1 kDa; reactive sites Lys26 (trypsin) and Phe53 (chymotrypsin); By DLS a trimer at 15 µM and pH 7.5; also called BTCI; source: isolated from Vigna unguiculata (Cowpea) seeds, purified as previously described [29]
[1]
  stoichiometry N: 3
[2]
  KI or Kd, caspase-like site: 1.4 µM
  KI or Kd, chymotrypsin-like site: 700 nM
  KI or Kd, trypsin-like site: 100 nM
